Assay results reported in patent US20210246166A1 (Bayer, published 2021).
Numbered stars: 1 amine (or outer) side, 2 acyl side, 3 side chain; on linkers, the order of the positions; unused ones are H or OH. Bridge positions count the residues as written; N and C are the ends. Square brackets hold non-standard residues; d marks the D form. Ends that are not written are not given here. X17 = 2‑((1S,2S)-1-(Amino)-2-methylbutyl)‑1,3‑oxazole‑4‑carboxylic acid, CC[C@H](C)[C@H](N[*:1])c1nc(C(=O)[*:2])co1; Pro(4-spirocPr) = O=C(O)[C@@H]1CC2(CC2)CN1; Oic = O=C(O)[C@@H]1C[C@@H]2CCCC[C@@H]2N1; tBuAla = CC(C)(C)C[C@H](N)C(=O)O; Pen = CC(C)(S)[C@H](N)C(=O)O; NMeC = CN[C@@H](CS)C(=O)O; Orn = NCCC[C@H](N)C(=O)O

T1: recombinant rat MASP1 active protease (amino acids 302-704, C-terminal His Tag) (rat, UniProt Q8CHN8 302-704)
T1 sequence: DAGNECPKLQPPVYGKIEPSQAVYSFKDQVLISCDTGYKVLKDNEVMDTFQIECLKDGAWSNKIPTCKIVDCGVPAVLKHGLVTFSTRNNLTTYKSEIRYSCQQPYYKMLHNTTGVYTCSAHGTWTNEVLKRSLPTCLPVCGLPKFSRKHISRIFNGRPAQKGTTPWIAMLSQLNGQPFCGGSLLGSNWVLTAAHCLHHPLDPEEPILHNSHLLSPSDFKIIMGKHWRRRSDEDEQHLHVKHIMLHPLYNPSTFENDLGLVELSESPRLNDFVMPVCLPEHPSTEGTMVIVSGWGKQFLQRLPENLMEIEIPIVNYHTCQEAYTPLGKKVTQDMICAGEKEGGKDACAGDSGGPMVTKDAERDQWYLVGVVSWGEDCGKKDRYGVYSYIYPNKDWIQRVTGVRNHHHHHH

B1: Example 12: AIC+SRS-((tBu)A)-PPI-(Pen)+IPD-OH (peptide)
peptide: AICSRS[tBuAla]PPI[Pen]IPD-OH
modifications: disulfide 3-11; N-terminus assumed
SMILES: CC[C@H](C)[C@H](NC(=O)[C@H](C)N)C(=O)N[C@H]1CSSC(C)(C)[C@@H](C(=O)N[C@H](C(=O)N2CCC[C@H]2C(=O)N[C@@H](CC(=O)O)C(=O)O)[C@@H](C)CC)NC(=O)[C@H]([C@@H](C)CC)NC(=O)[C@@H]2CCCN2C(=O)[C@@H]2CCCN2C(=O)[C@H](CC(C)(C)C)NC(=O)[C@H](CO)NC(=O)[C@H](CCCNC(=N)N)NC(=O)[C@H](CO)NC1=O
B2: Example 36: AIC+SRSLP-((6S)-5-Azaspiro[2.4]heptane-6-carboxylic acid)-I-(Pen)+IPD-OH (peptide)
peptide: AICSRSLP[Pro(4-spirocPr)]I[Pen]IPD-OH
modifications: disulfide 3-11; N-terminus assumed
SMILES: CC[C@H](C)[C@H](NC(=O)[C@H](C)N)C(=O)N[C@H]1CSSC(C)(C)[C@@H](C(=O)N[C@H](C(=O)N2CCC[C@H]2C(=O)N[C@@H](CC(=O)O)C(=O)O)[C@@H](C)CC)NC(=O)[C@H]([C@@H](C)CC)NC(=O)[C@@H]2CC3(CC3)CN2C(=O)[C@@H]2CCCN2C(=O)[C@H](CC(C)C)NC(=O)[C@H](CO)NC(=O)[C@H](CCCNC(=N)N)NC(=O)[C@H](CO)NC1=O
B3: Example 20: AIC+SRS-((tBu)A)-PPI-((N-Me)C)+(2-[(1S,2S)-1-(Amino)-2-methylbutyl]-1,3-oxazole-4-carboxylic acid)-D-NH2 (peptide)
peptide: AICSRS[tBuAla]PPI[NMeC][X17]D-NH2
modifications: disulfide 3-11; N-terminus assumed
SMILES: CC[C@H](C)[C@H](NC(=O)[C@H](C)N)C(=O)N[C@H]1CSSC[C@@H](C(=O)N[C@H](c2nc(C(=O)N[C@@H](CC(=O)O)C(N)=O)co2)[C@@H](C)CC)N(C)C(=O)[C@H]([C@@H](C)CC)NC(=O)[C@@H]2CCCN2C(=O)[C@@H]2CCCN2C(=O)[C@H](CC(C)(C)C)NC(=O)[C@H](CO)NC(=O)[C@H](CCCNC(=N)N)NC(=O)[C@H](CO)NC1=O
B4: Example 17: AIC+SRSLP-((6S)-5-Azaspiro[2.4]heptane-6-carboxylic acid)-I-(Pen)+IPD-NH2 (peptide)
peptide: AICSRSLP[Pro(4-spirocPr)]I[Pen]IPD-NH2
modifications: disulfide 3-11; N-terminus assumed
SMILES: CC[C@H](C)[C@H](NC(=O)[C@H](C)N)C(=O)N[C@H]1CSSC(C)(C)[C@@H](C(=O)N[C@H](C(=O)N2CCC[C@H]2C(=O)N[C@@H](CC(=O)O)C(N)=O)[C@@H](C)CC)NC(=O)[C@H]([C@@H](C)CC)NC(=O)[C@@H]2CC3(CC3)CN2C(=O)[C@@H]2CCCN2C(=O)[C@H](CC(C)C)NC(=O)[C@H](CO)NC(=O)[C@H](CCCNC(=N)N)NC(=O)[C@H](CO)NC1=O
B5: Example 37: AIC+SRS-((tBu)A)-PPIC+I-NH2 (peptide)
peptide: AICSRS[tBuAla]PPICI-NH2
modifications: disulfide 3-11; N-terminus assumed
SMILES: CC[C@H](C)[C@H](NC(=O)[C@@H]1CSSC[C@H](NC(=O)[C@@H](NC(=O)[C@H](C)N)[C@@H](C)CC)C(=O)N[C@@H](CO)C(=O)N[C@@H](CCCNC(=N)N)C(=O)N[C@@H](CO)C(=O)N[C@@H](CC(C)(C)C)C(=O)N2CCC[C@H]2C(=O)N2CCC[C@H]2C(=O)N[C@@H]([C@@H](C)CC)C(=O)N1)C(N)=O
B6: Example 19: RIC+SRS-((tBu)A)-PPI-((N-Me)C)+IPD-NH2 (peptide)
peptide: RICSRS[tBuAla]PPI[NMeC]IPD-NH2
modifications: disulfide 3-11; N-terminus assumed
SMILES: CC[C@H](C)[C@H](NC(=O)[C@@H](N)CCCNC(=N)N)C(=O)N[C@H]1CSSC[C@@H](C(=O)N[C@H](C(=O)N2CCC[C@H]2C(=O)N[C@@H](CC(=O)O)C(N)=O)[C@@H](C)CC)N(C)C(=O)[C@H]([C@@H](C)CC)NC(=O)[C@@H]2CCCN2C(=O)[C@@H]2CCCN2C(=O)[C@H](CC(C)(C)C)NC(=O)[C@H](CO)NC(=O)[C@H](CCCNC(=N)N)NC(=O)[C@H](CO)NC1=O
B7: Example 18: (Orn)-IC+SRS-((tBu)A)-PPI-(Pen)+IPD-OH (peptide)
peptide: [Orn]ICSRS[tBuAla]PPI[Pen]IPD-OH
modifications: disulfide 3-11; N-terminus assumed
SMILES: CC[C@H](C)[C@H](NC(=O)[C@@H](N)CCCN)C(=O)N[C@H]1CSSC(C)(C)[C@@H](C(=O)N[C@H](C(=O)N2CCC[C@H]2C(=O)N[C@@H](CC(=O)O)C(=O)O)[C@@H](C)CC)NC(=O)[C@H]([C@@H](C)CC)NC(=O)[C@@H]2CCCN2C(=O)[C@@H]2CCCN2C(=O)[C@H](CC(C)(C)C)NC(=O)[C@H](CO)NC(=O)[C@H](CCCNC(=N)N)NC(=O)[C@H](CO)NC1=O
B8: Example 38: RIC+SRS-((tBu)A)-PPI-((N-Me)C)+I-NH2 (peptide)
peptide: RICSRS[tBuAla]PPI[NMeC]I-NH2
modifications: disulfide 3-11; N-terminus assumed
SMILES: CC[C@H](C)[C@H](NC(=O)[C@@H]1CSSC[C@H](NC(=O)[C@@H](NC(=O)[C@@H](N)CCCNC(=N)N)[C@@H](C)CC)C(=O)N[C@@H](CO)C(=O)N[C@@H](CCCNC(=N)N)C(=O)N[C@@H](CO)C(=O)N[C@@H](CC(C)(C)C)C(=O)N2CCC[C@H]2C(=O)N2CCC[C@H]2C(=O)N[C@@H]([C@@H](C)CC)C(=O)N1C)C(N)=O
B9: Example 35: KIC+SRS-((tBu)A)-PPI-((N-Me)C)+IPD-NH2 (peptide)
peptide: KICSRS[tBuAla]PPI[NMeC]IPD-NH2
modifications: disulfide 3-11; N-terminus assumed
SMILES: CC[C@H](C)[C@H](NC(=O)[C@@H](N)CCCCN)C(=O)N[C@H]1CSSC[C@@H](C(=O)N[C@H](C(=O)N2CCC[C@H]2C(=O)N[C@@H](CC(=O)O)C(N)=O)[C@@H](C)CC)N(C)C(=O)[C@H]([C@@H](C)CC)NC(=O)[C@@H]2CCCN2C(=O)[C@@H]2CCCN2C(=O)[C@H](CC(C)(C)C)NC(=O)[C@H](CO)NC(=O)[C@H](CCCNC(=N)N)NC(=O)[C@H](CO)NC1=O
B10: Example 14: AIC+SRS-((tBu)A)-P-(Oic)-I-(Pen)+IPD-OH (peptide)
peptide: AICSRS[tBuAla]P[Oic]I[Pen]IPD-OH
modifications: disulfide 3-11; N-terminus assumed
SMILES: CC[C@H](C)[C@H](NC(=O)[C@H](C)N)C(=O)N[C@H]1CSSC(C)(C)[C@@H](C(=O)N[C@H](C(=O)N2CCC[C@H]2C(=O)N[C@@H](CC(=O)O)C(=O)O)[C@@H](C)CC)NC(=O)[C@H]([C@@H](C)CC)NC(=O)[C@@H]2C[C@@H]3CCCC[C@@H]3N2C(=O)[C@@H]2CCCN2C(=O)[C@H](CC(C)(C)C)NC(=O)[C@H](CO)NC(=O)[C@H](CCCNC(=N)N)NC(=O)[C@H](CO)NC1=O
B11: Example 31: AIC+SRS-((tBu)A)-P-((6S)-5-Azaspiro[2.4]heptane-6-carboxylic acid)-I-(Pen)+IPD-OH (peptide)
peptide: AICSRS[tBuAla]P[Pro(4-spirocPr)]I[Pen]IPD-OH
modifications: disulfide 3-11; N-terminus assumed
SMILES: CC[C@H](C)[C@H](NC(=O)[C@H](C)N)C(=O)N[C@H]1CSSC(C)(C)[C@@H](C(=O)N[C@H](C(=O)N2CCC[C@H]2C(=O)N[C@@H](CC(=O)O)C(=O)O)[C@@H](C)CC)NC(=O)[C@H]([C@@H](C)CC)NC(=O)[C@@H]2CC3(CC3)CN2C(=O)[C@@H]2CCCN2C(=O)[C@H](CC(C)(C)C)NC(=O)[C@H](CO)NC(=O)[C@H](CCCNC(=N)N)NC(=O)[C@H](CO)NC1=O

target: T1, recombinant rat MASP1 active protease …; test: cell-based or functional assay

rat MASP1 IC50	Binder
13 nM	B1
24 nM	B2
13 nM	B3
31 nM	B4
140 nM	B5
28 nM	AICSRS[tBuAla]PPI[NMeC]IPD-NH2 (disulfide 3-11; also: HCl salt) [Example 30: AIC+SRS-((tBu)A)-PPI-((N-Me)C)+IPD-NH2 (HCl salt)]
23 nM	B6
26 nM	B7
12 nM	B8
46 nM	B9
23 nM	B10
22 nM	B11
